# From patent US20120201792A1, “METHODS AND PRODUCTS FOR MANIPULATING HEMATOPOIETIC STEM CELLS” (The General Hospital Corporation, priority 2000, published 2012)
# T1: KIAA0001 receptor (Homo sapiens, UniProt Q15391)
# T1 sequence (Q15391 1-338): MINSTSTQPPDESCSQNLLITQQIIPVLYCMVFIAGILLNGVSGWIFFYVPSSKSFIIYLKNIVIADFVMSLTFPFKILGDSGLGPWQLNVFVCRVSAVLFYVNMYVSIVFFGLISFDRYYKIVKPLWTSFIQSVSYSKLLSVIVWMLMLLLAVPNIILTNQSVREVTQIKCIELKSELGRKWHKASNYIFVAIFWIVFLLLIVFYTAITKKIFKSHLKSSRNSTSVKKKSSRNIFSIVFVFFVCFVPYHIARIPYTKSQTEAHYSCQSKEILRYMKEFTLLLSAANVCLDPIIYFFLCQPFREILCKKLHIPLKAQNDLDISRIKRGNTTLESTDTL
# T2: SC-GPR (Homo sapiens, UniProt Q15391)
# T2 sequence (Q15391 1-338): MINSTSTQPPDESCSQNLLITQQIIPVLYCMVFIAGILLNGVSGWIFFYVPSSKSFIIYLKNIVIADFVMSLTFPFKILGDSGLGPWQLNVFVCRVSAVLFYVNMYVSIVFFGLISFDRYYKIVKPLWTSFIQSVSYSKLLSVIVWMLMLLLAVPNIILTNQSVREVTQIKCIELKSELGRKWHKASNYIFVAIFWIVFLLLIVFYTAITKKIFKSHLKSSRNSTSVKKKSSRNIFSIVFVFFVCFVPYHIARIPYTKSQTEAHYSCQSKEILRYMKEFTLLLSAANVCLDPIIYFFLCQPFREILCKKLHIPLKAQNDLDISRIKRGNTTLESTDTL
# Target: T1, KIAA0001 receptor
# Assay: not given
# Settings: Chambers et al., 2000 J Biol Chem; cited from earlier work
row,Molecule,binding to the receptor and induction of calcium flux
1,CC(=O)N[C@H]1[C@@H](OP(=O)(O)OP(=O)(O)OC[C@H]2O[C@@H](n3ccc(=O)[nH]c3=O)[C@H](O)[C@@H]2O)O[C@H](CO)[C@@H](O)[C@@H]1O [UDP-N-acetylglucosamine],bind to the receptor and induce calcium flux
2,O=C(O)[C@H]1O[C@H](OP(=O)(O)OP(=O)(O)OC[C@H]2O[C@@H](n3ccc(=O)[nH]c3=O)[C@H](O)[C@@H]2O)[C@H](O)[C@@H](O)[C@@H]1O [UDP-glucuronic acid],bind to the receptor and induce calcium flux

# Target: T2, SC-GPR
# Assay: Intracellular calcium flux (Fura-2) in Cos-7 cells expressing SC-GPR
# Settings: Fura-2 loaded cells expressing SC-GPR, fluorescence ratio F340/F380
row,Molecule,calcium flux / activation of SC-GPR expressing cells
1,Nc1ncnc2c1ncn2[C@@H]1O[C@H](COP(=O)(O)OP(=O)(O)OP(=O)(O)O)[C@@H](O)[C@H]1O [ATP],failed to result in activation
2,CCCCC/C=C\C[C@@H](O)/C=C/C=C/C=C\[C@@H](O)CCCC(=O)O [LTB4],failed to result in activation
3,CCCCCCCCCCCCCCCCOC[C@H](COP(=O)([O-])OCC[N+](C)(C)C)OC(C)=O [PAF],failed to result in activation
4,IL-8: known chemokine screened as potential SC-GPR ligand,failed to result in activation
5,MCP 1: known chemokine screened as potential SC-GPR ligand,failed to result in activation
6,"MCP 3: printed as ""MCP 1, 3, 4""; known chemokine screened",failed to result in activation
7,"MCP 4: printed as ""MCP 1, 3, 4""; known chemokine screened",failed to result in activation
8,MIP1a: known chemokine screened as potential SC-GPR ligand,failed to result in activation
9,PF4: known chemokine screened as potential SC-GPR ligand,failed to result in activation
10,RANTES: known chemokine screened as potential SC-GPR ligand,failed to result in activation
11,SDF-1: known chemokine screened as potential SC-GPR ligand,failed to result in activation
12,MIP1b: known chemokine screened as potential SC-GPR ligand (protein) APMGSDPPTACCFSYTARKLPRNFVVDYYETSSLCSQPAVVFQTKRSKQVCADPSESWVQEYVYDLELN,failed to result in activation
13,TARC: known chemokine screened as potential SC-GPR ligand (protein) ARGTNVGRECCLEYFKGAIPLRKLKTWYQTSEDCSRDAIVFVTVQGRAICSDPNNKRVKNAVKYLQSLERS,failed to result in activation
